Experiment [1] addresses T1, HGFRECD-His recombinant protein (human, UniProt P08581 25-932).
T1 construct: human HGFR (c-MET) recombinant protein, extracellular domain; also called HGFR-His; HGFR-His recombinant protein; source: bought: Sino Biological
Nature of the experiment: ELISA; HGFR-His recombinant protein (2 μg/ml) added to plates coated with EGF-like-domain deletion mutant-Fc (1 μg/ml); TMB colorimetric peroxidase assay. The conditions noted are these: both partners purified. On the technique in general: In an ELISA, binding on a coated surface is turned into a signal by an enzyme label.

Experiment [2] has as its target T1, HGFRECD-His recombinant protein. The experiment in a line: pull-down; EpEX-Fc and HGFR-His recombinant protein (2.5 μg/ml); IP with Dynabeads Protein G, Western blotting with anti-6× His tag antibody. The conditions noted are these: both partners purified.

T1 sequence (P08581 25-932): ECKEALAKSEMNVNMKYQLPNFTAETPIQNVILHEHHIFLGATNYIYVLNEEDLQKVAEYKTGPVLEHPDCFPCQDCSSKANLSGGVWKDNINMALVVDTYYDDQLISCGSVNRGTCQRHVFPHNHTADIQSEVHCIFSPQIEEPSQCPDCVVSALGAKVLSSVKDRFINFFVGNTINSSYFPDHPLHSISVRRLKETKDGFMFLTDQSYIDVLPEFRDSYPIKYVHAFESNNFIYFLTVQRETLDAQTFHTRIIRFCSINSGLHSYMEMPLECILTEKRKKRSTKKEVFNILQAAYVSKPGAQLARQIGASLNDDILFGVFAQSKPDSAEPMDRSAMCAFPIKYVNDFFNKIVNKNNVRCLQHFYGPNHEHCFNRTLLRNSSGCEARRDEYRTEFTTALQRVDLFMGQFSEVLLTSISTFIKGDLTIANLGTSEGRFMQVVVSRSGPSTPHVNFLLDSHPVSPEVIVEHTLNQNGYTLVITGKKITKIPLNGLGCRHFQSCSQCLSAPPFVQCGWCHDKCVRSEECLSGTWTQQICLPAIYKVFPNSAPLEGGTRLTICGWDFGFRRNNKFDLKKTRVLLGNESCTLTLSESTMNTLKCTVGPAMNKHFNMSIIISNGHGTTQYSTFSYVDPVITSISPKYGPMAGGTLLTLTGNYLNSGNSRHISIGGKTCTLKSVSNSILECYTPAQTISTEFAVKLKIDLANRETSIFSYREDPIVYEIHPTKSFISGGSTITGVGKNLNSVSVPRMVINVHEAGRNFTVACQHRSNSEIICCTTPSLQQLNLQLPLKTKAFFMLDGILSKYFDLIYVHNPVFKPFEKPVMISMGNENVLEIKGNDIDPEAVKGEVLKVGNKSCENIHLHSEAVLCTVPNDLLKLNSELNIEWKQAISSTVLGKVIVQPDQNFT

B1: EpEX_(ΔEGFII)-Fc (Fc fusion, human, UniProt P16422 24-265, looked up)
chain: QEECVCENYKLAVNCFVNNNRQCQCTSVGAQNTVICSKLAAKSERVRTYWIIIELKHKAREKPYDSKSLRTALQKEITTRYQLDPKFITSILYENNVITIDLVQNSSQKTQNDVDIADVAYYFEKDVKGESLFHSKKMDLTVNGEQLDLDPGQTLIYYVDEKAPEFSMQGLK
notes: EpEX, extracellular domain of EpCAM, with EGF-like domain II (amino acids 66–135) deleted; also called EGF-like-domain deletion mutant-Fc
With B1, in experiment [1], the binding result was “binds”.

B2: EpEX_(ΔEGFI)-Fc (Fc fusion, human, UniProt P16422 24-265, looked up)
chain: QEESKLAAKCLVMKAEMNGSKLGRRAKPEGALQNNDGLYDPDCDESGLFKAKQCNGTSMCWCVNTAGVRRTDKDTEITCSERVRTYWIIIELKHKAREKPYDSKSLRTALQKEITTRYQLDPKFITSILYENNVITIDLVQNSSQKTQNDVDIADVAYYFEKDVKGESLFHSKKMDLTVNGEQLDLDPGQTLIYYVDEKAPEFSMQGLK
notes: EpEX, extracellular domain of EpCAM, with EGF-like domain I (amino acids 27–59) deleted; also called EGF-like-domain deletion mutant-Fc
Turning to B2, in experiment [1], the binding result was “binds”.

B3: EpEX-Fc recombinant protein (Fc fusion, human, UniProt P16422 24-265, looked up)
chain: QEECVCENYKLAVNCFVNNNRQCQCTSVGAQNTVICSKLAAKCLVMKAEMNGSKLGRRAKPEGALQNNDGLYDPDCDESGLFKAKQCNGTSMCWCVNTAGVRRTDKDTEITCSERVRTYWIIIELKHKAREKPYDSKSLRTALQKEITTRYQLDPKFITSILYENNVITIDLVQNSSQKTQNDVDIADVAYYFEKDVKGESLFHSKKMDLTVNGEQLDLDPGQTLIYYVDEKAPEFSMQGLK
notes: also called recombinant EpEX-Fc
As for B3, the binding result in experiment [2] is “binds”.

(Values after paper PMC10404369, “Epithelial cell adhesion molecule (EpCAM) regulates HGFR signaling to promote colon cancer progression and metastasis” (Journal of Translational Medicine, 2023).)
